Measurements: patent US20210101970A1

What was measured:
mouse CXCR5 (mouse) = mouse CXCR5 (mouse) (UniProt Q04683); assay: FACS on cells expressing the CXCR5 construct
human CXCR5 (human) [1] = target: human CXCR5 (human) (UniProt P32302); assay: FACS on cells expressing the CXCR5 construct
human CXCR5 (human) [2] = target: human CXCR5 (human) (UniProt P32302); assay: cell-based or functional assay

human CXCR5 (human), sequence (P32302 whole entry): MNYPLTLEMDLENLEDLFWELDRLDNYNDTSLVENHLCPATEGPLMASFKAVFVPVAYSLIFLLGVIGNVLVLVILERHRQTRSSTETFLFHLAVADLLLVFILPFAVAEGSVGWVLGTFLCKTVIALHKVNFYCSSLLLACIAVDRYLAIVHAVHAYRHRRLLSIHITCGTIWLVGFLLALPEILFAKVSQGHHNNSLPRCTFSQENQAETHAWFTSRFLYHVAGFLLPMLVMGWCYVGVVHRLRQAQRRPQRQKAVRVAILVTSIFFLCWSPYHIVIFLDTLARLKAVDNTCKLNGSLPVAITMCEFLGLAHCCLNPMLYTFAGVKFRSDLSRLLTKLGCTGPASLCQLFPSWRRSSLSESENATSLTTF
mouse CXCR5 (mouse), sequence (Q04683 whole entry): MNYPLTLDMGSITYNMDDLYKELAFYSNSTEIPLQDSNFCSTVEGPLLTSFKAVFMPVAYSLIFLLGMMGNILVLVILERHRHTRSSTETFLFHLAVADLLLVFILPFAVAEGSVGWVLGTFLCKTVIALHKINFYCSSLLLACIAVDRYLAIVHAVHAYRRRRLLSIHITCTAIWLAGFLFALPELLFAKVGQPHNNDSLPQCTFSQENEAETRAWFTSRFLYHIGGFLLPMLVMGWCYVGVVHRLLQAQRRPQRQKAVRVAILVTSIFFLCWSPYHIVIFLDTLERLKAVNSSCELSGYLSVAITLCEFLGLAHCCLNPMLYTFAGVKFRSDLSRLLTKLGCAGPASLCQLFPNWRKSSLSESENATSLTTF

GMFI (mouse CXCR5 (mouse)) | GMFI (human CXCR5 (human) [1]) | IC80, inhibition of forskolin-triggered cAMP production (human CXCR5 (human) [2]) | Substance
1040 GMFI | 18600 GMFI |  | rabbit anti-human CXCR5 (catalog ab46218, Abcam) (antibody)
12500 GMFI | 2460 GMFI |  | rat anti-mouse CXCR5 (catalog MAB6198, R&D systems) (antibody)
 |  | 0.6 nM | recombinant hCXCL13 (from UniProt O43927 23-109) (ligand)
